The values below come from patent publication US20250289896A1 (ANALYTICAL BIOSCIENCES SHANGHAI, published 2025).

The target in experiment [1] is T1, cynomolgus macaque CCR8 (cynomolgus macaque, UniProt G7NYJ2 1-355).
T1 construct: whole, on cells; Overexpressed on 293T cells (293T-cCCR8) and Jurkat cells (Jurkat-cynoCCR8); also called cCCR8; cyno CCR8
Put plainly: flow cytometry, 293T cells overexpressing cynomolgus CCR8. On the procedure: (§1) Binding specificity of the anti-CCR8 antibodies (mAbs) was tested by FACS using several cell lines. […] The binding titration of the anti-CCR8 antibodies to CCR8 transfectants was performed by serial dilution of antibodies. The diluted antibody (50 μl) in flow cytometry buffer (PBS, 0.5% BSA, 1 mM EDTA) was incubated with cells (50 μl) at a concentration of 2 million cells/ml on ice for 30 min. After two washes with flow cytometry buffer, bound antibody was detected with Alexa647-labeled F(ab′)2 fragment goat anti-human IgG (Jackson ImmunoResearch #709-606-149) (1:500 dilution) for 20 minutes on ice. The fluorescence was measured on a Cytek Aurora cytometer, after two washes with flow cytometry buffer. The data were analyzed with GraphPad Prism 8.0 software to determine EC50 values.
Background: A flow cytometer gives signals particle by particle.

Experiment [2] concerns the target T1, cynomolgus macaque CCR8. The experiment in a line: cell-based or functional assay.
The target in experiment [3] is T2, Human CCR8 (C-C chemokine receptor type 8) (human, UniProt P51685 1-355).
T2 construct: overexpressed on HEK293T (293T-hCCR8), Jurkat-hCCR8 and CHEM1-CCR8 cells; also called hCCR8
T2 sequence (P51685 whole entry): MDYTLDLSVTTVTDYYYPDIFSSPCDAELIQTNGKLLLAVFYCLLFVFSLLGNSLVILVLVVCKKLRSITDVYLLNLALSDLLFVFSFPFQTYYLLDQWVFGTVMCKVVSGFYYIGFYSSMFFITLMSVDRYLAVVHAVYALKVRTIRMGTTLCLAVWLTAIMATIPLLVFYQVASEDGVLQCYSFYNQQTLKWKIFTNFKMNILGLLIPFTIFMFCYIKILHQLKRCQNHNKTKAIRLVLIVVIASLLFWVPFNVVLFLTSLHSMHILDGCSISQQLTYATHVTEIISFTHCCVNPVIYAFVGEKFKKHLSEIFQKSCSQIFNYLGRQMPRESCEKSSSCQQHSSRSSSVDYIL
Put plainly: flow cytometry, 293T cells overexpressing human CCR8. On the procedure:
as §1

Experiment [4] concerns the target T1, cynomolgus macaque CCR8. Put plainly: flow cytometry, 293T cells overexpressing cynomolgus CCR8. The method, then: as §1
The source holds these as a separate data set.

Experiment [5] has as its target T2, Human CCR8 (C-C chemokine receptor type …). Put plainly: cell-based or functional assay.
Experiment [6] has the same target. Put plainly: flow cytometry, Hut78 cells (endogenous human CCR8). On the procedure: as §1
Experiment [7] has the same target. The experiment is described as above. The method, then: as §1
This is another data set of the same source.

In a further experiment the target is T3, mCCR8 (UniProt P56484 1-353, limits assumed).
T3 construct: whole, on cells; also called 293T-mCCR8
T3 sequence (looked up): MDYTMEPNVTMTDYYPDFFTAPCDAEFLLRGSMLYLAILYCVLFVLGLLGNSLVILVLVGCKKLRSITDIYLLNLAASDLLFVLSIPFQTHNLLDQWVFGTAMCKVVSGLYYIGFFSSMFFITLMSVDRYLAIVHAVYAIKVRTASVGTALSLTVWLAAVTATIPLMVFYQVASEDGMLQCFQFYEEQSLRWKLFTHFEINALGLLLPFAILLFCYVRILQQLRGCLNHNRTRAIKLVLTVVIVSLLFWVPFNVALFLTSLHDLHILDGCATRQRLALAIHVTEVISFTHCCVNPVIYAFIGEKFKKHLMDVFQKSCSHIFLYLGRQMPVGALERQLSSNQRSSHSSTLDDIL
The experiment in a line: flow cytometry, 293T cells with mCCR8. The method, then:
as §1

For experiment [8], the target named is T2, Human CCR8 (C-C chemokine receptor type …). Put plainly: flow cytometry, 293T cells overexpressing human CCR8. On the procedure:
as §1
The source holds these as a separate data set.

For experiment [9] the target is unchanged. The experiment in a line: cell-based or functional assay. This is another data set of the same source.
The target is the same in experiment [10]. Put plainly: cell-based or functional assay. The source holds these as a separate data set.

Residue numbers refer to the chain shown, from its start. Like-named read-outs stand apart in the source and are kept apart here.

T1 sequence (G7NYJ2 entry or part of it): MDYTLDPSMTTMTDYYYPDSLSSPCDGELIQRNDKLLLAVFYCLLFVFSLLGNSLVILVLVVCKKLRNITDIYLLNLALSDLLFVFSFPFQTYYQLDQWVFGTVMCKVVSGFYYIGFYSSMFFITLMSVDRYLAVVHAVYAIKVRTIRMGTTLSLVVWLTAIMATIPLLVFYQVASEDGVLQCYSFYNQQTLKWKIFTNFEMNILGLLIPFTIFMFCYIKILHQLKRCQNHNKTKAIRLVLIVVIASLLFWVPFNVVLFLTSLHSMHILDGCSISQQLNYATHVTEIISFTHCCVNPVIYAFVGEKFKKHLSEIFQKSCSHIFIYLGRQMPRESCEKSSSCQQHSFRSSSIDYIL

B1: ABC822 (antibody, human IgG1, kappa, V domains shown)
VH: EVQLVESGGGLMQPGRSLKLSCAASGFSFSDYYMAWVRQAPKKGLEWVASISNAGTKTYYGDSVKGRFTISRDDAKSTLYLQMNSLRSEDTATYYCVRQDLYYGRNQYWYFDFWGPGTMVTVSS
VL: IVMTQSPTSMSKSVGDRVTMNCKASQSVGSNVDWYQQKTGQSPKLLIYKTSSRFTGVPDRFTGSGSRTDFTFTISSMQAEDLALYYCVQSNSYPYTFGAGTKLELKR
Take B1: the EC50 – broadly, the concentration that produces a half-maximal response – turned out to be 0.0938 nM with cynomolgus macaque CCR8 [1]; 0.0684 nM in experiment [3]; 0.464 nM in the experiment with cynomolgus macaque CCR8 [4]; 3.16 nM in experiment [6]; 2.92 nM in experiment [7]; 0.269 nM in experiment [8]. In the experiment with cynomolgus macaque CCR8 [2], the “ADCC killing of Jurkat-cynoCCR8 cells, IC50 (pM)” value was 7.19 pM. For the same molecule, in experiment [5], the “ADCC killing of Jurkat-hCCR8 cells, IC50 (pM)” value came out at 9.68 pM. The binding result with mCCR8 is listed as “no binding”. Besides, in experiment [9], the “ADCC killing of Hut78 cells, IC50 (pM)” value worked out at 6.31 pM.

B2: ChH2-AF (antibody, human IgG1, kappa)
heavy: not shown
light: DIVMTQAAPSVPVTPGESVSISCRSSQSLLHSNGNTYLYWFLQRPGQSPQLLIYRMSNLASGVPDRFSGSGSGTAFTLRISRVEAEDVGVYYCMQHLEYPFTFGIGTKLELKRTVAAPSVFIFPPSDEQLKSGTASVVCLLNNFYPREAKVQWKVDNALQSGNSQESVTEQDSKDSTYSLSSTLTLSKADYEKHKVYACEVTHQGLSSPVTKSFNRGEC
B2: the “ADCC killing of TALL-1 cells, Median EC50 (pM)” value in experiment [10] was 2.55 pM.

B3: ChB1-AF (antibody, human IgG1, kappa)
heavy: not shown
light: B2 light with P12V, Q27K, L97V, I105G, L109V, E110Q, L111I
Consider B3, for which the “ADCC killing of TALL-1 cells, Median EC50 (pM)” value in experiment [10] was 9.8 pM.

B4: ABC1183 (antibody, human IgG1, kappa, V domains shown)
VH: EVQLLESGGGLVQPGGSLRLSCAASGFSFSDYYMAWVRQAPGKGLEWVASISNAGTKTYYGDSVKGRFTISRDDSKNTLYLQMNSLRAEDTAVYYCVRQDLYYGRNQYWYFDFWGRGTLVTVSS
VL: DIQMTQSPSSLSASVGDRVTITCKASQSVGSNVDWYQQKPGKSPKLLIYKTSSRFTGVPSRFSGSGSRTDFTLTISSLQPEDFATYYCVQSNSYPYTFGAGTKLELKR
notes: Humanized format of ABC822
In the case of B4, the “ADCC killing of Jurkat-cynoCCR8 cells, IC50 (pM)” value in the experiment with cynomolgus macaque CCR8 [2] was found to be 6.15 pM. The EC50 with cynomolgus macaque CCR8 [4] was 0.445 nM; in [7], 4.12 nM; in experiment [8] it was 0.373 nM. Also, the “ADCC killing of Jurkat-hCCR8 cells, IC50 (pM)” value in [5] worked out at 1.8 pM. For the same molecule, the binding result in the experiment with mCCR8 is given as “no binding”. In experiment [9], the “ADCC killing of Hut78 cells, IC50 (pM)” value worked out at 7.95 pM.
